Laboratory results as given in patent US20190010233A1 (JIANGSU HYAMAB PHARMACEUTICAL, published 2019).
Substitutions are numbered along the chain they refer to.

B1: chimeric anti-PD-L1 antibody 73D3G2 (antibody, V domains shown)
VH: EVQLVESGGGLVQPGGSLRLSCAASGFTFNTYWMNWVRQAPGRGLEWVANIKQDGGEKYYVDSVKGRFTISRDNAKNSLYLQMNSLRAEDTAMYYCARDGRSWYPDAFDIWGQGTVVTVSS
VL: DIQMTQSPSTLSASVGDRVTITCRASQSISTWLAWYQQKLGKAPKLLIYEVSILESGVPSRFSGSGSGTEFTLTISSLQPDDFATYYCQQYHSFSSFGGGTRVEIK
notes: Purified from hybridoma of Harbour H2L2 mice: human variable regions, rat constant regions
B2: chimeric anti-PD-L1 antibody 78A11F6 (antibody, V domains shown)
VH: EVQLVESGGGLVQPGGSLRLSCAASGITFSSYWMSWVRQTPGKGLEWVANIKQDGSEKYYVKSVKGRFTISRDNAKNSLYLQMNSLRAEDTAVYYCVRDRAVPGTGAFDIWGQGTMVIVSS
VL: DIQMTQSPSTLSASVGDRVTITCRASQSISNWLAWYQQKPGKAPKLLIYKASSLESGVPSRFSGSGSGTEFTLTISSLQPDDFATYYCQQYDSSLFTFGQGTKLEIK
notes: as for B1
B3: chimeric anti-PD-L1 antibody 73G11B3 (antibody, V domains shown)
VH: B2 VH with A23V, A24V, I27F, K62D, F68L, F108L, I118T
VL: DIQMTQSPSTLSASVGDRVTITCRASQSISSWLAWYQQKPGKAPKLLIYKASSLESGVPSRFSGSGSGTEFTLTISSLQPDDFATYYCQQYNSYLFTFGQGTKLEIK
notes: as for B1
B4: chimeric anti-PD-L1 antibody 192D9E7 (antibody, V domains shown)
VH: EVQLVESGGGLVQPGGSLRLSCAASGFTFSSYWMSWVRQAPGKGLEWVADIKQDGSEKYYVDSVKGRFTISRDNAKNSLYLQMNSLRAEDTAVYYCTRDKPHWGGVMDAWGQGTSVTVSS
VL: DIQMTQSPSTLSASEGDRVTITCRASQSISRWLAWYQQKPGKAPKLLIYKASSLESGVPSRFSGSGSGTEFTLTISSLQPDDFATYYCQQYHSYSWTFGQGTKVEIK
notes: as for B1
B5: chimeric anti-PD-L1 antibody 105C5D7 (antibody, V domains shown)
VH: EVQLVESGGGLVQPGGSLRLSCAASGFTFSSYWMSWVRQAPGKGLEWVANIKQDGNEKYYVDSVKGRFTISRDNAKNSLYLQMNSLRAEDTAVYYCARNIKWGDAFDIWGQGTMVTVSS
VL: DIQMTQSPSSLSASVGDRVTITCRASQSISSYLNWYQQKPGKAPKLLIYAASSLQSGVPSRFSGSGSGTDFTLTISSLQPEDFAIYSCQQSYSIPLTFGGGTKVEIK
notes: as for B1
B6: chimeric anti-PD-L1 antibody 127D2F3 (antibody, V domains shown)
VH: EVQLVESGGGLVQPGGSLRLSCVASGFTFSSYWMSWVRQAPGKGLEWVANIKQDGSEKYYVDSVKGRLTISRDNAKNSLYLQMKSLRAEDTAVYYCARDPIYSSYFDYWGQGILVTVSS
VL: B5 VL with S31N, I85A, S87Y, S93G, L96F, G100P, E105D
notes: as for B1

How the values were obtained:
[1] = biological target: T1, cyno PD-L1^ECD-hFc protein (cyno, UniProt G7PSE7 19-239); assay: ELISA, 10 nM mAb
T1 construct: also called Cyno Monkey PD-L1^ECD-hFc
T1 sequence (G7PSE7 entry or part of it limits assumed): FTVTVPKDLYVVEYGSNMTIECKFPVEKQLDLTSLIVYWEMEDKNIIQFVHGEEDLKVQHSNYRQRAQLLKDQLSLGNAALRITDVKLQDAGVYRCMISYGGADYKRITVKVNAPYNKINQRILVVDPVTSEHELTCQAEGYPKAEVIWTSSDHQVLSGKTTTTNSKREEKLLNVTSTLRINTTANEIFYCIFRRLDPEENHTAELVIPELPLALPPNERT
Method: (§1) 100 μL of the diluted recombinant proteins were added to each well of 96-well plate. The plates were sealed with plastic film and incubated at 4° C. overnight. The plates were washed twice with wash buffer (PBS+0.01% (v/v) Tween20), and incubated with blocking buffer (PBS+0.01% (v/v) Tween20+1% (w/w) BSA) at room temperature for 2 hours. The blocking buffer was aspirated away, and 100 μL of purified anti-PD-L1 antibodies were added to each well and incubated for 2 hours at 37° C. The plates were washed three times with wash buffer (PBS+0.01% (v/v) Tween20). HRP-conjugated secondary antibody (Sigma) was added to each well and incubated for 2 hours at 37° C. After the plates were washed three times with wash buffer, 100 μL TMB substrate were added to each well, and the plates were incubated for 30 minutes at room temperature. 100 μL stop solution (0.1N HCl) was added to each well to stop the reaction.

[2] = biological target: T2, human PD-L1^ECD-hFc protein (human, UniProt Q9NZQ7 19-239, biotinylated in the PD-1 binding ELISA (Table 3) and in the Octet assay (Table 12)); assay: ELISA, 0.370 nM mAb
T2 construct: The plain and the biotinylated protein are kept as one molecule; also called PD-L1-hFc; Immunogen A; not shown: human IgG Fc fragment (hFc)
T2 sequence (Q9NZQ7 19-239): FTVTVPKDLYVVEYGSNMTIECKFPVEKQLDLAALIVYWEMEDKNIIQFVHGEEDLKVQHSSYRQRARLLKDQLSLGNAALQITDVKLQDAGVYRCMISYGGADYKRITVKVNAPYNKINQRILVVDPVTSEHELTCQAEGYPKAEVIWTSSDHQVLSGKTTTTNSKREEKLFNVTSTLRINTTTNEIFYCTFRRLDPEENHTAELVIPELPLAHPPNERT
Method: as §1

[3] = biological target: T1, cyno PD-L1^ECD-hFc protein; assay: ELISA, 0.370 nM mAb
Method: as §1

[4] = biological target: T3, full length human PD-L1 on cells (human, UniProt Q9NZQ7 19-290); assay: FACS CHO-K1-hPD-L1, 0.14 nM mAb
T3 construct: Also used as the target of the cell-based functional assays (transfected stimulator cells; PD-L1 of the cells in the mixed lymphocyte reaction); also called CHO-K1-hPD-L1; CHOK1-hPD-L1
T3 sequence (Q9NZQ7 19-290 limits assumed): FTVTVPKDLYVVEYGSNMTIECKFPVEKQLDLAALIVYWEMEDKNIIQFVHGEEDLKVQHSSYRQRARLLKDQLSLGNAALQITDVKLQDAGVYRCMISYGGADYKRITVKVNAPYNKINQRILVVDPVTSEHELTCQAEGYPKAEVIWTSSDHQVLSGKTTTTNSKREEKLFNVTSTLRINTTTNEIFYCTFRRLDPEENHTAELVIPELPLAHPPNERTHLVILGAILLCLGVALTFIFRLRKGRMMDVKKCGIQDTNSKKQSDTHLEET
Method: (§2) Other CHO-K1 were stably transfected with a pIRES plasmid containing the nucleic acid sequence encoding full length cyno PD-L1 to generate CHO-K1 cells stably expressing cyno PD-L1 (herein referred to as CHO-K1-cPD-L1 cells). […] The culture media was aspirated, and the cells were washed twice with HBSS (Hanks Balanced Salt Solution, Invitrogen). The cells were treated with enzyme-free cell dissociation solution (Versene solution, Invitrogen) and collected. The cells were then washed twice with HBSS, cell counts were determined, and cells were resuspended with HBSS at 2×10⁶ cells/mL. Goat serum was added to the cell suspension to a final concentration of 1%, and the cells were blocked for 30 minutes on ice and then washed twice with HBSS. The cells were collected after centrifugation and resuspended in FACS buffer (HBSS+1% BSA, v/v) at 2×10⁶ cells/mL. 100 μL of the cell suspension were then added to each well of 96-well plate. 100 μL of purified anti-PD-L1 antibodies from Example 2 were added to each well of the 96-well plate and incubated for 2 hours on ice. […] The samples were washed three times with FACS buffer, and 100 μL fixation buffer (4% paraformaldehyde v/v) were added to each well and incubated for 10 minutes. The cells were then washed twice with FACS buffer and resuspended in 100 μL FACS buffer. The mean fluorescence intensity (MFI) was determined using FACS Calibur (BD), and the results are shown in FIGS. 7-8 and in Tables 10-11.

[5] = biological target: T3, full length human PD-L1 on cells; assay: FACS CHO-K1-hPD-L1, 1.23 nM mAb
[6] = biological target: T4, full length cyno PD-L1 on cells (cyno, UniProt G7PSE7 19-290); assay: FACS CHO-K1-cPD-L1, 1.23 nM mAb
T4 construct: also called CHO-K1-cPD-L1
T4 sequence (G7PSE7 entry or part of it limits assumed): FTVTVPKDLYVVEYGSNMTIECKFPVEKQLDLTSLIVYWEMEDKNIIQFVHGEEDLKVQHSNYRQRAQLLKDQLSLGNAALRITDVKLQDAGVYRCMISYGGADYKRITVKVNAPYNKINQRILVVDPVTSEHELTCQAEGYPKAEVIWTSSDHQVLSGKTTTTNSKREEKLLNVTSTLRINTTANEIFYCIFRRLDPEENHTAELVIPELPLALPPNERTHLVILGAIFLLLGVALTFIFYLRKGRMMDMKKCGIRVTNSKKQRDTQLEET
Method: as §2

[7] = biological target: T4, full length cyno PD-L1 on cells; assay: FACS CHO-K1-cPD-L1, 3.70 nM mAb
Method: as §2

[8] = biological target: T4, full length cyno PD-L1 on cells; assay: FACS CHO-K1-cPD-L1, 11.11 nM mAb
Method: as §2

[9] = biological target: T2, human PD-L1^ECD-hFc protein; assay: ELISA, mAb concentration not given
Method: as §1

[10] = biological target: T5, hPD-L2 (human, UniProt Q9BQ51 20-219, limits assumed); assay: ELISA, mAb concentration not given
T5 construct: Bought protein
T5 sequence (looked up): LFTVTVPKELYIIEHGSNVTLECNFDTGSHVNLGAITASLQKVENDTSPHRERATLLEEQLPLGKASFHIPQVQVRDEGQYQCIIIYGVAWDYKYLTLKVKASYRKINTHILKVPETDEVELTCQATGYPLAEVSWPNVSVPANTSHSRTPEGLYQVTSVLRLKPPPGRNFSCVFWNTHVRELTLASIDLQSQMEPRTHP
Method: as §1

[11] = biological target: T3, full length human PD-L1 on cells; assay: cell-based or functional assay
[12] = biological target: T3, full length human PD-L1 on cells; assay: cell-based or functional assay; remark: listed apart in the source
[13] = biological target: T3, full length human PD-L1 on cells; assay: FACS CHO-K1-hPD-L1, 1 nM mAb
[14] = biological target: T4, full length cyno PD-L1 on cells; assay: FACS CHO-K1-cPD-L1, 10 nM mAb
Method: as §2

[15] = biological target: T3, full length human PD-L1 on cells; assay: FACS CHO-K1-hPD-L1, 0.1 nM mAb

Row | Binder | OD450 nm [1] | OD450 nm [2] | OD450 nm [3] | Mean fluorescence intensity [4] | Mean fluorescence intensity [5] | Mean fluorescence intensity [6] | Mean fluorescence intensity [7] | Mean fluorescence intensity [8] | OD450 nm [9] | OD450 nm [10] | IL-2 (pg/mL), MLR donor1, 0.001 µg/mL mAb [11] | IL-2 (pg/mL), MLR donor1, 0.01 µg/mL mAb [11] | IL-2 (pg/mL), MLR donor1, 0.1 µg/mL mAb [11] | IL-2 (pg/mL), MLR donor1, 1 µg/mL mAb [11] | IL-2 (pg/mL), MLR donor1, 10 µg/mL mAb [11] | IFN-γ (pg/mL), MLR, 0.001 µg/mL mAb [12] | IFN-γ (pg/mL), MLR, 0.01 µg/mL mAb [12] | IFN-γ (pg/mL), MLR, 0.1 µg/mL mAb [12] | IFN-γ (pg/mL), MLR, 1 µg/mL mAb [12] | Mean fluorescence intensity [13] | other results
1 | B1 | 2.09 | 1.29 | 1.29 | 44.3 | 106 | 116 | 126 | 136 | 2.75 | 0.156 |  |  |  |  |  |  |  |  |  |  | 
2 | B2 | 2.07 | 1.39 | 1.5 | 51.5 | 174 | 124 | 139 | 142 | 2.71 | 0.205 |  |  |  |  |  |  |  |  |  |  | 
3 | B3 |  |  |  |  |  |  |  |  |  |  | 216 pg/mL | 365 pg/mL | 453 pg/mL | 426 pg/mL | 477 pg/mL | 3340 pg/mL | 3390 pg/mL | 7480 pg/mL | 16400 pg/mL | 107 | Mean fluorescence intensity [14]: 99.2; Mean fluorescence intensity [15]: 17.2
4 | B4 |  |  |  |  |  |  |  |  |  |  | 211 pg/mL | 371 pg/mL | 473 pg/mL | 461 pg/mL | 488 pg/mL | 4730 pg/mL | 8100 pg/mL | 9060 pg/mL | 12400 pg/mL | 97.6 | Mean fluorescence intensity [14]: 82.3; Mean fluorescence intensity [15]: 23.5
5 | B5 | 1.56 | 1.19 | 1.19 | 73.2 | 206 | 137 | 142 | 136 | 2.64 | 0.214 |  |  |  |  |  |  |  |  |  |  | 
6 | B6 |  |  |  |  |  |  |  |  |  |  | 226 pg/mL | 274 pg/mL | 429 pg/mL | 497 pg/mL | 440 pg/mL | 6040 pg/mL | 6280 pg/mL | 8760 pg/mL | 12600 pg/mL | 88.5 | Mean fluorescence intensity [14]: 105; Mean fluorescence intensity [15]: 15.5
